Values of other authors in PMC5874815.

Molecular target: EGFR (Homo sapiens) (UniProt P00533)

Question: With EGF (from UniProt P01133) as the substance, how does the Kd read?
Answer: 2 nM
